B1: Mouse neonatal Fc receptor (mFcRn) (receptor)
chain 1: SETRPPLMYHLTAVSNPSTGLPSFWATGWLGPQQYLTYNSLRQEADPCGAWMWENQVSWYWEKETTDLKSKEQLFLEALKTLEKILNGTYTLQGLLGCELASDNSSVPTAVFALNGEEFMKFNPRIGNWTGEWPETEIVANLWMKQPDAARKESEFLLNSCPERLLGHLERGRRNLEWKEPPSMRLKARPGNSGSSVLTCAAFSFYPPELKFRFLRNGLASGSGNCSTGPNGDGSFHAWSLLEVKRGDEHHYQCQVEHEGLAQPLTVDLDSSARSS
chain 2: IQKTPQIQVYSRHPPENGKPNILNCYVTQFHPPHIEIQMLKNGKKIPKVEMSDMSFSKDWSFYILAHTEFTPTETDTYACRVKHASMAEPKTVYWDRDM

How the values were obtained:
[1] = target: B1; assay: SPR
[2] = target: Wild-type human IgG1 Fc (Fc^WT) (human, N-linked glycan at N297, predominantly fucosylated agalactosylated or monogalactosylated); assay: SPR

Row | Binder | Kd [1] | Kd [2]
1 | Human IgG1 Fc bearing the Abdeg mutations (Fc^Abdeg, efgartigimod) (domain or fragment) DKTHTCPPCPAPELLGGPSVFLFPPKPKDTLYITREPEVTCVVVDVSHEDPEVKFNWYVDGVEVHNAKTKPREEQYNSTYRVVSVLTVLHQDWLNGKEYKCKVSNKALPAPIEKTISKAKGQPREPQVYTLPPSRDELTKNQVSLTCLVKGFYPSDIAVEWESNGQPENNYKTTPPVLDSDGSFFLYSKLTVDKSRWQQGNVFSCSVMHEALKFHYTQKSLSLSPGK | 0.27 nM | –
2 | B1 | – | 70 nM

Source: PMC10866649 (2024)
